This passage reports Cross-species potency (EC50 nM), cAMP assay and Human isoform potency (EC50 nM), cAMP assay results from patent publication US20200283491A1.

Assay in all cases: cell-based or functional assay
The target of experiment [1] is mouse Y2 receptor (mouse) (UniProt P97295).
Experiment [2] addresses rhesus monkey Y2 receptor (rhesus monkey) (UniProt Q9GK74).
Experiment [3] deals with human Y1 receptor (human) (UniProt P25929).
The target of the next experiment is rat Y2 receptor (rat) (UniProt Q9ERC0).
Chain of rat Y2 receptor (rat) (Q9ERC0 entry or part of it): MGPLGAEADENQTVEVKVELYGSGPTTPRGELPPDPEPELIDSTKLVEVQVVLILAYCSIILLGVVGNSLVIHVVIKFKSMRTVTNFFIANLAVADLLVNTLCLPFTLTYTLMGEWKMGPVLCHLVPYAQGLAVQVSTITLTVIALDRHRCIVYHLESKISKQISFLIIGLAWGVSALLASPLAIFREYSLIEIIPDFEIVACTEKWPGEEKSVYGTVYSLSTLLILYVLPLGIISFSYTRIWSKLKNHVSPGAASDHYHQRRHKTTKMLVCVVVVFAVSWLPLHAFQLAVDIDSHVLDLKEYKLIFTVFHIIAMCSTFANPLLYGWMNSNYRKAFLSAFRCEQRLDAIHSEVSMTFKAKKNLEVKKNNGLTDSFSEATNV

Chain of rhesus monkey Y2 receptor (rhesus monkey) (Q9GK74 whole entry): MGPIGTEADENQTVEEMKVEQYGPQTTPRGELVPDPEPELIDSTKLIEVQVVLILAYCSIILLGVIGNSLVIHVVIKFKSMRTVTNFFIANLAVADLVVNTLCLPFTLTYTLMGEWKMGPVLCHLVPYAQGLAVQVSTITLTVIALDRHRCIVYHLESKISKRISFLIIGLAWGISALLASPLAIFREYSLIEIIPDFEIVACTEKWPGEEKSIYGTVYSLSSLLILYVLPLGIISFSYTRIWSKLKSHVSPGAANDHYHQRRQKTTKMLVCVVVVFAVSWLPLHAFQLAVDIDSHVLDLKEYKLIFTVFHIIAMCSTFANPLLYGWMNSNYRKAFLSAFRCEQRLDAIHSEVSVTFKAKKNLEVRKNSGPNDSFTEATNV
Chain of mouse Y2 receptor (mouse) (P97295 whole entry): as the sequence (Q9ERC0 entry or part of it) above, with L4V, L20P, S23P, P25H, V52I, Q163R, V175I, K247R, T266M, L371P counted along it
Chain of human Y1 receptor (human) (P25929 whole entry): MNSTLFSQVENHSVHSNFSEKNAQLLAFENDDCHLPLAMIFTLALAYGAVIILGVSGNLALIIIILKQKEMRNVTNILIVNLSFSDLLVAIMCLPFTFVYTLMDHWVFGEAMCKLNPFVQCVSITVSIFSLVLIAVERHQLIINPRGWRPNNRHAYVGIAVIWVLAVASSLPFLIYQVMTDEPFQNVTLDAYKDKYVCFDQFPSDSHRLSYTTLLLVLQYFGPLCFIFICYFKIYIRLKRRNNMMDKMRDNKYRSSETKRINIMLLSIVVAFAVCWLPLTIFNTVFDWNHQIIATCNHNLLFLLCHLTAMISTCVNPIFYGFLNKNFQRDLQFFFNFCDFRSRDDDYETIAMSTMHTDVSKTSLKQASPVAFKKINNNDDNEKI

Turning to “PYY3-36 (from UniProt P10082 31-64) (peptide)”, the Cross-species potency (EC50 nM), cAMP assay in experiment [1] stood at 0.03 nM; in experiment [2], 0.06 nM; with rat Y2 receptor (rat), 0.5 nM. In addition, the Human isoform potency (EC50 nM), cAMP assay in experiment [3] was 66.4 nM.
